Measurements reported in patent US20260193342A1 (ZOETIS SERVICES, published 2026).

Experiments:
[1] = biological target: T1, canine FcRn complex (FcRn-α subunit and β-microglobulin) (canine, UniProt A0A8I3PFR8 25-347, biotin on the BAP tag by BirA (Example 5 only)); assay: SPR (Biacore), biotinylated FcRn on SA chip, IgG flowed, pH 7.4, 15 C
[2] = biological target: T1, canine FcRn complex (FcRn-α subunit and …); assay: SPR (Biacore), biotinylated FcRn on SA chip, IgG flowed, pH 6, 15 C

T1 sequence (A0A8I3PFR8 entry or part of it, one chain of several): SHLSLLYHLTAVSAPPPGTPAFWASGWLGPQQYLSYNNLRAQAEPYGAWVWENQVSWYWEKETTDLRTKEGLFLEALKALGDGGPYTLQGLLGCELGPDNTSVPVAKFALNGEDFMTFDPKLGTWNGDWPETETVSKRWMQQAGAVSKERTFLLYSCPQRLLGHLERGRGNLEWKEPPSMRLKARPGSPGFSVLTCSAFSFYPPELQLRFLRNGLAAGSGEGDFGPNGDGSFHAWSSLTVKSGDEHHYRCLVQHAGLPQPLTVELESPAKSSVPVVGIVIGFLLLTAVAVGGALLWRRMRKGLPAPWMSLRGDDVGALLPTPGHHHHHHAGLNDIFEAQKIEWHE

Row | Binder | Kd [1] [nM] | Kd [2] [nM]
1 | mAb2 of Table 4A, caninized anti-NGF antibody ZTS-841, canine IgGA, N434Y (antibody, also called ID No. 45) heavy: EVQLVESGGDLVKPGGSLRLSCVASGFTFSSHGMHWVRQSPGKGLQWVAVINSGGSSTYYTDAVKGRFTISRDNAKNTVYLQMNSLRAEDTAMYYCAKESVGGWEQLVGPHFDYWGQGTLVIVSSASTTAPSVFPLAPSCGSTSGSTVALACLVSGYFPEPVTVSWNSGSLTSGVHTFPSVLQSSGLHSLSSMVTVPSSRWPSETFTCNVVHPASNTKVDKPVFNECRCTDTPPCPVPEPLGGPSVLIFPPKPKDILRITRTPEVTCVVLDLGREDPEVQISWFVDGKEVHTAKTQSREQQFNGTYRVVSVLPIEHQDWLTGKEFKCRVNHIDLPSPIERTISKARGRAHKPSVYVLPPSPKELSSSDTVSITCLIKDFYPPDIDVEWQSNGQQEPERKHRMTPPQLDEDGSYFLYSKLSVDKSRWQQGDPFTCAVMHETLQYHYTDLSLSHSPGK VL: QSVLTQPTSVSGSLGQRVTISCSGSTNNIGILGASWYQLFPGKAPKLLVYGNGNRPSGVPDRFSGADSGDSVTLTITGLQAEDEADYYCQSFDTTLGAHVFGGGTHLTVL | 9530 | 14.3
2 | mAb2 of Table 4A, caninized anti-NGF antibody ZTS-841, canine IgGB, N434I (antibody, also called ID No. 50) heavy: EVQLVESGGDLVKPGGSLRLSCVASGFTFSSHGMHWVRQSPGKGLQWVAVINSGGSSTYYTDAVKGRFTISRDNAKNTVYLQMNSLRAEDTAMYYCAKESVGGWEQLVGPHFDYWGQGTLVIVSSASTTAPSVFPLAPSCGSTSGSTVALACLVSGYFPEPVTVSWNSGSLTSGVHTFPSVLQSSGLYSLSSMVTVPSSRWPSETFTCNVAHPASKTKVDKPVPKRENGRVPRPPDCPKCPAPEMLGGPSVFIFPPKPKDTLLIARTPEVTCVVVDLDPEDPEVQISWFVDGKQMQTAKTQPREEQFNGTYRVVSVLPIGHQDWLKGKQFTCKVNNKALPSPIERTISKARGQAHQPSVYVLPPSREELSKNTVSLTCLIKDFFPPDIDVEWQSNGQQEPESKYRTTPPQLDEDGSYFLYSKLSVDKSRWQRGDTFICAVMHEALHIHYTQESLSHSPGK VL: QSVLTQPTSVSGSLGQRVTISCSGSTNNIGILGASWYQLFPGKAPKLLVYGNGNRPSGVPDRFSGADSGDSVTLTITGLQAEDEADYYCQSFDTTLGAHVFGGGTHLTVL | 22800 | 2.76
3 | mAb2 of Table 4A, caninized anti-NGF antibody ZTS-841, canine IgGB, N434K (antibody, also called ID No. 51) heavy: EVQLVESGGDLVKPGGSLRLSCVASGFTFSSHGMHWVRQSPGKGLQWVAVINSGGSSTYYTDAVKGRFTISRDNAKNTVYLQMNSLRAEDTAMYYCAKESVGGWEQLVGPHFDYWGQGTLVIVSSASTTAPSVFPLAPSCGSTSGSTVALACLVSGYFPEPVTVSWNSGSLTSGVHTFPSVLQSSGLYSLSSMVTVPSSRWPSETFTCNVAHPASKTKVDKPVPKRENGRVPRPPDCPKCPAPEMLGGPSVFIFPPKPKDTLLIARTPEVTCVVVDLDPEDPEVQISWFVDGKQMQTAKTQPREEQFNGTYRVVSVLPIGHQDWLKGKQFTCKVNNKALPSPIERTISKARGQAHQPSVYVLPPSREELSKNTVSLTCLIKDFFPPDIDVEWQSNGQQEPESKYRTTPPQLDEDGSYFLYSKLSVDKSRWQRGDTFICAVMHEALHKHYTQESLSHSPGK VL: QSVLTQPTSVSGSLGQRVTISCSGSTNNIGILGASWYQLFPGKAPKLLVYGNGNRPSGVPDRFSGADSGDSVTLTITGLQAEDEADYYCQSFDTTLGAHVFGGGTHLTVL | 594 | 1.93
4 | mAb1, caninized anti-IL31 antibody 34D03, canine IgGA, N434Y (antibody, VH/VL: the caninized 34D03 entries of the listing; also called ID No. 7; copies: 2 + 2) heavy: EVQLVESGGDLVKPGGSLRLSCVASGFTFSNYGMSWVRQAPGKGLQWVATISYGGSYTYYPDNIKGRFTISRDNAKNTLYLQMNSLRAEDTAMYYCVRGYGYDTMDYWGQGTLVTVSSASTTAPSVFPLAPSCGSTSGSTVALACLVSGYFPEPVTVSWNSGSLTSGVHTFPSVLQSSGLHSLSSMVTVPSSRWPSETFTCNVVHPASNTKVDKPVFNECRCTDTPPCPVPEPLGGPSVLIFPPKPKDILRITRTPEVTCVVLDLGREDPEVQISWFVDGKEVHTAKTQSREQQFNGTYRVVSVLPIEHQDWLTGKEFKCRVNHIDLPSPIERTISKARGRAHKPSVYVLPPSPKELSSSDTVSITCLIKDFYPPDIDVEWQSNGQQEPERKHRMTPPQLDEDGSYFLYSKLSVDKSRWQQGDPFTCAVMHETLQYHYTDLSLSHSPGK light: EIVMTQSPASLSLSQEEKVTITCKASQSVSFAGTGLMHWYQQKPGQAPKLLIYRASNLEAGVPSRFSGSGSGTDFSFTISSLEPEDVAVYYCQQSREYPWTFGQGTKLEIKRNDAQPAVYLFQPSPDQLHTGSASVVCLLNSFYPKDINVKWKVDGVIQDTGIQESVTEQDKDSTYSLSSTLTMSSTEYLSHELYSCEITHKSLPSTLIKSFQRSEC | 573 | 25.2
5 | mAb1, caninized anti-IL31 antibody 34D03, canine IgGB, N434A (antibody, VH/VL: the caninized 34D03 entries of the listing; also called ID No. 9; copies: 2 + 2) heavy: EVQLVESGGDLVKPGGSLRLSCVASGFTFSNYGMSWVRQAPGKGLQWVATISYGGSYTYYPDNIKGRFTISRDNAKNTLYLQMNSLRAEDTAMYYCVRGYGYDTMDYWGQGTLVTVSSASTTAPSVFPLAPSCGSTSGSTVALACLVSGYFPEPVTVSWNSGSLTSGVHTFPSVLQSSGLYSLSSMVTVPSSRWPSETFTCNVAHPASKTKVDKPVPKRENGRVPRPPDCPKCPAPEMLGGPSVFIFPPKPKDTLLIARTPEVTCVVVDLDPEDPEVQISWFVDGKQMQTAKTQPREEQFNGTYRVVSVLPIGHQDWLKGKQFTCKVNNKALPSPIERTISKARGQAHQPSVYVLPPSREELSKNTVSLTCLIKDFFPPDIDVEWQSNGQQEPESKYRTTPPQLDEDGSYFLYSKLSVDKSRWQRGDTFICAVMHEALHAHYTQESLSHSPGK light: EIVMTQSPASLSLSQEEKVTITCKASQSVSFAGTGLMHWYQQKPGQAPKLLIYRASNLEAGVPSRFSGSGSGTDFSFTISSLEPEDVAVYYCQQSREYPWTFGQGTKLEIKRNDAQPAVYLFQPSPDQLHTGSASVVCLLNSFYPKDINVKWKVDGVIQDTGIQESVTEQDKDSTYSLSSTLTMSSTEYLSHELYSCEITHKSLPSTLIKSFQRSEC | 175 | 139
6 | mAb1, caninized anti-IL31 antibody 34D03, canine IgGB, N434G (antibody, VH/VL: the caninized 34D03 entries of the listing; also called ID No. 11; copies: 2 + 2) heavy: EVQLVESGGDLVKPGGSLRLSCVASGFTFSNYGMSWVRQAPGKGLQWVATISYGGSYTYYPDNIKGRFTISRDNAKNTLYLQMNSLRAEDTAMYYCVRGYGYDTMDYWGQGTLVTVSSASTTAPSVFPLAPSCGSTSGSTVALACLVSGYFPEPVTVSWNSGSLTSGVHTFPSVLQSSGLYSLSSMVTVPSSRWPSETFTCNVAHPASKTKVDKPVPKRENGRVPRPPDCPKCPAPEMLGGPSVFIFPPKPKDTLLIARTPEVTCVVVDLDPEDPEVQISWFVDGKQMQTAKTQPREEQFNGTYRVVSVLPIGHQDWLKGKQFTCKVNNKALPSPIERTISKARGQAHQPSVYVLPPSREELSKNTVSLTCLIKDFFPPDIDVEWQSNGQQEPESKYRTTPPQLDEDGSYFLYSKLSVDKSRWQRGDTFICAVMHEALHGHYTQESLSHSPGK light: EIVMTQSPASLSLSQEEKVTITCKASQSVSFAGTGLMHWYQQKPGQAPKLLIYRASNLEAGVPSRFSGSGSGTDFSFTISSLEPEDVAVYYCQQSREYPWTFGQGTKLEIKRNDAQPAVYLFQPSPDQLHTGSASVVCLLNSFYPKDINVKWKVDGVIQDTGIQESVTEQDKDSTYSLSSTLTMSSTEYLSHELYSCEITHKSLPSTLIKSFQRSEC | 26000 | 118
7 | mAb1, caninized anti-IL31 antibody 34D03, canine IgGB, N434K (antibody, VH/VL: the caninized 34D03 entries of the listing; also called ID No. 13; copies: 2 + 2) heavy: EVQLVESGGDLVKPGGSLRLSCVASGFTFSNYGMSWVRQAPGKGLQWVATISYGGSYTYYPDNIKGRFTISRDNAKNTLYLQMNSLRAEDTAMYYCVRGYGYDTMDYWGQGTLVTVSSASTTAPSVFPLAPSCGSTSGSTVALACLVSGYFPEPVTVSWNSGSLTSGVHTFPSVLQSSGLYSLSSMVTVPSSRWPSETFTCNVAHPASKTKVDKPVPKRENGRVPRPPDCPKCPAPEMLGGPSVFIFPPKPKDTLLIARTPEVTCVVVDLDPEDPEVQISWFVDGKQMQTAKTQPREEQFNGTYRVVSVLPIGHQDWLKGKQFTCKVNNKALPSPIERTISKARGQAHQPSVYVLPPSREELSKNTVSLTCLIKDFFPPDIDVEWQSNGQQEPESKYRTTPPQLDEDGSYFLYSKLSVDKSRWQRGDTFICAVMHEALHKHYTQESLSHSPGK light: EIVMTQSPASLSLSQEEKVTITCKASQSVSFAGTGLMHWYQQKPGQAPKLLIYRASNLEAGVPSRFSGSGSGTDFSFTISSLEPEDVAVYYCQQSREYPWTFGQGTKLEIKRNDAQPAVYLFQPSPDQLHTGSASVVCLLNSFYPKDINVKWKVDGVIQDTGIQESVTEQDKDSTYSLSSTLTMSSTEYLSHELYSCEITHKSLPSTLIKSFQRSEC | 7.86 | 9.11
8 | mAb1, caninized anti-IL31 antibody 34D03, canine IgGB, N434F (antibody, VH/VL: the caninized 34D03 entries of the listing; also called ID No. 10; copies: 2 + 2) heavy: EVQLVESGGDLVKPGGSLRLSCVASGFTFSNYGMSWVRQAPGKGLQWVATISYGGSYTYYPDNIKGRFTISRDNAKNTLYLQMNSLRAEDTAMYYCVRGYGYDTMDYWGQGTLVTVSSASTTAPSVFPLAPSCGSTSGSTVALACLVSGYFPEPVTVSWNSGSLTSGVHTFPSVLQSSGLYSLSSMVTVPSSRWPSETFTCNVAHPASKTKVDKPVPKRENGRVPRPPDCPKCPAPEMLGGPSVFIFPPKPKDTLLIARTPEVTCVVVDLDPEDPEVQISWFVDGKQMQTAKTQPREEQFNGTYRVVSVLPIGHQDWLKGKQFTCKVNNKALPSPIERTISKARGQAHQPSVYVLPPSREELSKNTVSLTCLIKDFFPPDIDVEWQSNGQQEPESKYRTTPPQLDEDGSYFLYSKLSVDKSRWQRGDTFICAVMHEALHFHYTQESLSHSPGK light: EIVMTQSPASLSLSQEEKVTITCKASQSVSFAGTGLMHWYQQKPGQAPKLLIYRASNLEAGVPSRFSGSGSGTDFSFTISSLEPEDVAVYYCQQSREYPWTFGQGTKLEIKRNDAQPAVYLFQPSPDQLHTGSASVVCLLNSFYPKDINVKWKVDGVIQDTGIQESVTEQDKDSTYSLSSTLTMSSTEYLSHELYSCEITHKSLPSTLIKSFQRSEC | 33700 | 30.7
9 | mAb1, caninized anti-IL31 antibody 34D03, canine IgGB, N434I (antibody, VH/VL: the caninized 34D03 entries of the listing; also called ID No. 12; copies: 2 + 2) heavy: EVQLVESGGDLVKPGGSLRLSCVASGFTFSNYGMSWVRQAPGKGLQWVATISYGGSYTYYPDNIKGRFTISRDNAKNTLYLQMNSLRAEDTAMYYCVRGYGYDTMDYWGQGTLVTVSSASTTAPSVFPLAPSCGSTSGSTVALACLVSGYFPEPVTVSWNSGSLTSGVHTFPSVLQSSGLYSLSSMVTVPSSRWPSETFTCNVAHPASKTKVDKPVPKRENGRVPRPPDCPKCPAPEMLGGPSVFIFPPKPKDTLLIARTPEVTCVVVDLDPEDPEVQISWFVDGKQMQTAKTQPREEQFNGTYRVVSVLPIGHQDWLKGKQFTCKVNNKALPSPIERTISKARGQAHQPSVYVLPPSREELSKNTVSLTCLIKDFFPPDIDVEWQSNGQQEPESKYRTTPPQLDEDGSYFLYSKLSVDKSRWQRGDTFICAVMHEALHIHYTQESLSHSPGK light: EIVMTQSPASLSLSQEEKVTITCKASQSVSFAGTGLMHWYQQKPGQAPKLLIYRASNLEAGVPSRFSGSGSGTDFSFTISSLEPEDVAVYYCQQSREYPWTFGQGTKLEIKRNDAQPAVYLFQPSPDQLHTGSASVVCLLNSFYPKDINVKWKVDGVIQDTGIQESVTEQDKDSTYSLSSTLTMSSTEYLSHELYSCEITHKSLPSTLIKSFQRSEC | 19600 | 77.1
